Biological target: T1, HiNF-P (enriched chromatographic fraction, HeLa) (Homo sapiens, UniProt Q9BQA5 Q9BQA5:1-517)
T1 sequence: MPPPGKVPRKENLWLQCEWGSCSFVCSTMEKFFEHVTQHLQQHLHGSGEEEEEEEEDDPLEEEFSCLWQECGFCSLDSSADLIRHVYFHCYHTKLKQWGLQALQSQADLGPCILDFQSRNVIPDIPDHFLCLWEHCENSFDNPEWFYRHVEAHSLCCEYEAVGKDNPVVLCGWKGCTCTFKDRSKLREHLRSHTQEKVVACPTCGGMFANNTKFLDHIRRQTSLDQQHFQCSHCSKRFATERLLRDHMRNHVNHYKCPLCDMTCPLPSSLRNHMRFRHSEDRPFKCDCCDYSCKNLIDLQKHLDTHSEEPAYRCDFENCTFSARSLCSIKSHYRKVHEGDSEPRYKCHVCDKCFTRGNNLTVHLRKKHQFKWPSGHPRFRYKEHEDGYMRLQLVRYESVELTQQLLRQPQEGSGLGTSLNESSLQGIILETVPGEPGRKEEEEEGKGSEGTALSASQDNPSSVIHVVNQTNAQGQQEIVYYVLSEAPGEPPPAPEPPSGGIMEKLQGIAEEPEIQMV
Experiment: UV cross-linking, 65 kDa; 100 uM Zn2+ and Mg2+
Settings: label: 32P-dCTP
Description: FIG. 6B is a representation of an autoradiogram showing UV cross-linking of HiNF-P/Site II complexes. Oligonucleotides spanning wild type (WT) and mutant (Pmut) Site II sequences were labeled with BrdUTP and ³²P-dCTP then incubated with a fraction (7.5 μl; 0.4M KCl) containing enriched HiNF-P binding activity. The reaction mixture was exposed to UV light (305 nm) for 60 minutes and then digested with DNase I and MNase. Cross-linked, labeled proteins were analyzed using 10% SDS-PAGE and subjected to autoradiography. Molecular weight makers are shown at the left. The arrow indicates the 65 kDa HiNF-P-DNA complex.
Ultraviolet cross-linking experiments were performed by adapting a method described in Ausubel, F. M. et al. (Current Protocols in Molecular Biology. Greene and Wiley, New York, 1989). A radiolabeled and BrdU-substituted probe was prepared by incubating 20 pmol of partially double-stranded HiNF-P-specific oligonucleotide (top strand: 5′-CGC TTT CGG-3′, SEQ ID NO:13; Bottom strand: 5′-CAAGAGTATCGGACCAGATTGAAAACCGAAAGCG-3′, SEQ ID NO:14) with 1 μl of 50× dNTP/BrdUTP solution (containing 50 μM DATP, 50 μM dGTP, 37.5 μM dTTP and 12.5 μM BrdUTP), 150 μCi α-³²P-dCTP and 1 μl of a solution containing 5 mM DTT and 1 μg/μl BSA, in a total reaction volume of 25 μl. […] Following nuclease digestion, the products were analyzed by 10% SDS-PAGE.

B1: BrdU-substituted Site II probe (dsDNA)
DNA 1: CAAGAGTATCGGACCAGATTGAAAACCGAAAGCG
DNA 2: CGCTTTCGGTTTTCAATCTGGTCCGATACTCTTG
modifications: partial BrdU substitution for T in filled-in strand
**Q.** Does B1 bind?
**A.** Result: binds
